Tested on: peptide library, one residue held at a place counted from the S/T acceptor
Experiment: relative phosphorylation of the sub-library (ratio to the mean residue at this position); higher = residue favoured
Settings: human
How it was run: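 In 384-well plates, purified recombinant kinases (human or orthologue constructs) were incubated for 90 min under kinase-specific conditions with 50 μM biotinylated degenerate peptide sub-libraries and 50 μM ATP spiked with γ-32P-ATP. Each sub-library fixed a single residue at one position around a central Ser/Thr. Relative sub-library phosphorylation, measured by phosphorimaging and densitometry of streptavidin membrane spots, is given as a ratio to the mean residue at that position.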

BRAF, construct: aa444-721, sequence (P15056 444-721, looked up): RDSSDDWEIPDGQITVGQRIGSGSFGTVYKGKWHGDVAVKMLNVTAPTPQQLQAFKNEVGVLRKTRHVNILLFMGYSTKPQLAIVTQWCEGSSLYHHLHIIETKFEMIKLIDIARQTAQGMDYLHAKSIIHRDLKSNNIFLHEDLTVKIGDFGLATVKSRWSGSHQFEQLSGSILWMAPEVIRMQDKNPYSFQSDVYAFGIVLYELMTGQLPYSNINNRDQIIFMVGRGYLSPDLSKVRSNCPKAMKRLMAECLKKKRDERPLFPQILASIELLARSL
CAMKK2, construct: Full length, sequence (Q96RR4 whole entry, looked up): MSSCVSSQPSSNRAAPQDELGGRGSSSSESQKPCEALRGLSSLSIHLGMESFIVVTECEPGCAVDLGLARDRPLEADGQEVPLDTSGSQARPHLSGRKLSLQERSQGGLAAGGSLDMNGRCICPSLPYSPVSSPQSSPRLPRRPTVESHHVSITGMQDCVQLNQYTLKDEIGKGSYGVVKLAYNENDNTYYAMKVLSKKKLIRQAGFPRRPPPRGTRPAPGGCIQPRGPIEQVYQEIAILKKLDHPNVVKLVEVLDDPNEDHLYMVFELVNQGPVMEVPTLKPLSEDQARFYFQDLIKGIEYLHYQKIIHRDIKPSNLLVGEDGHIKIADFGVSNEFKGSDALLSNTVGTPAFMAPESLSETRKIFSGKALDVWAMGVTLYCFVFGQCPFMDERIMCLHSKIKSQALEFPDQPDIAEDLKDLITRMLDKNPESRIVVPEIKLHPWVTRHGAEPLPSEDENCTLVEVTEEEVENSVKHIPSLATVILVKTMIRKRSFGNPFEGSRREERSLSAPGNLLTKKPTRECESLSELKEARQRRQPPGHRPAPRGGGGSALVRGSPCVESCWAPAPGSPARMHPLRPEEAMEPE

BRAF, construct: aa444-721 (from UniProt P15056)
relative phosphorylation
Settings | at +1 | at +2 | at +3 | at +4 | at -1 | at -2 | at -3 | at -4 | at -5
A fixed | 0.66 | 0.762 | 0.791 | 0.965 | 1.06 | 1.07 | 1.09 | 0.86 | 1.06
D fixed | 0.675 | 1.38 | 0.941 | 1.09 | 1.92 | 0.748 | 0.994 | 1.52 | 1.48
E fixed | 1.3 | 0.94 | 0.898 | 0.966 | 1.36 | 1 | 1.01 | 1.21 | 1.18
F fixed | 1.44 | 0.67 | 1.06 | 0.762 | 0.539 | 0.983 | 0.935 | 0.684 | 0.7
G fixed | 0.592 | 0.644 | 0.953 | 1.15 | 1.05 | 0.572 | 0.752 | 0.953 | 0.991
H fixed | 0.864 | 1.49 | 0.97 | 1.09 | 1.78 | 1.26 | 0.902 | 0.908 | 1.11
I fixed | 1.95 | 1.09 | 1.1 | 0.733 | 0.422 | 1.64 | 0.712 | 0.488 | 0.701
K fixed | 0.533 | 0.749 | 0.714 | 1.11 | 0.775 | 0.686 | 1.34 | 0.743 | 1.32
L fixed | 1.22 | 0.773 | 1.25 | 0.842 | 0.609 | 1.05 | 1.51 | 0.596 | 0.762
M fixed | 1.26 | 1.23 | 1.22 | 0.826 | 1.23 | 0.931 | 1.27 | 0.629 | 0.897
N fixed | 0.849 | 1.5 | 1.13 | 1.24 | 1.77 | 0.932 | 0.861 | 0.905 | 1.14
P fixed | 0.377 | 0.631 | 0.805 | 1.57 | 0.337 | 0.499 | 0.666 | 0.945 | 1.15
Q fixed | 0.956 | 1.51 | 0.995 | 1 | 1.14 | 0.892 | 0.929 | 0.765 | 0.889
R fixed | 0.673 | 0.848 | 0.902 | 1.08 | 1.17 | 0.839 | 1.46 | 0.629 | 1.06
V fixed | 1.76 | 1.2 | 0.935 | 0.661 | 0.504 | 1.55 | 0.707 | 0.546 | 0.687
W fixed | 0.769 | 0.802 | 1.44 | 1.1 | 0.589 | 1.09 | 1.13 | 3.93 | 1.01
Y fixed | 1.12 | 0.776 | 0.898 | 0.813 | 0.775 | 1.25 | 0.725 | 0.69 | 0.859
pThr fixed | 1.08 | 0.723 | 0.835 | 0.85 | 0.577 | 0.992 | 0.807 | 0.776 | 0.945
pTyr fixed | 0.912 | 0.736 | 0.945 | 0.792 | 1.13 | 1.58 | 0.734 | 0.655 | 1

CAMKK2, construct: Full length (from UniProt Q96RR4)
relative phosphorylation
Settings | at +1 | at +2 | at +3 | at +4 | at -1 | at -2 | at -3 | at -4 | at -5
A fixed | 1.16 | 0.999 | 0.931 | 0.783 | 1.27 | 0.476 | 1.17 | 0.993 | 1.31
D fixed | 0.612 | 1.03 | 1.09 | 1.14 | 1.17 | 0.349 | 0.289 | 0.949 | 1.02
E fixed | 0.647 | 0.701 | 0.995 | 0.774 | 1.24 | 0.313 | 0.317 | 0.905 | 0.843
F fixed | 0.787 | 0.602 | 0.861 | 1.12 | 0.671 | 1.91 | 1.44 | 0.939 | 0.93
G fixed | 0.848 | 1.24 | 1.36 | 1.09 | 0.731 | 0.434 | 0.846 | 1.11 | 1.29
H fixed | 0.46 | 1.21 | 0.888 | 1.1 | 0.934 | 0.748 | 1.23 | 1.15 | 1.09
I fixed | 1.27 | 0.734 | 0.702 | 0.589 | 0.46 | 0.558 | 0.672 | 0.481 | 0.529
K fixed | 1.03 | 1.04 | 0.971 | 1.18 | 1.6 | 0.629 | 0.567 | 0.887 | 1.02
L fixed | 1.1 | 0.786 | 0.783 | 0.953 | 0.974 | 2.57 | 0.981 | 0.762 | 0.561
M fixed | 1.92 | 1.14 | 0.834 | 0.979 | 1.2 | 2.46 | 1.65 | 1.04 | 0.887
N fixed | 1.02 | 1.4 | 1.22 | 0.991 | 1.15 | 0.594 | 0.66 | 0.95 | 0.917
P fixed | 0.328 | 1.26 | 1.61 | 1.64 | 0.268 | 0.363 | 1.48 | 0.931 | 1.29
Q fixed | 1.07 | 0.937 | 1.05 | 1.09 | 1.6 | 0.727 | 1.09 | 1.05 | 1.08
R fixed | 1.18 | 1.32 | 1.04 | 0.852 | 1.65 | 0.885 | 0.856 | 1.11 | 1.21
V fixed | 1.19 | 0.93 | 0.706 | 0.884 | 0.601 | 0.548 | 0.953 | 0.583 | 0.753
W fixed | 1.22 | 0.742 | 0.971 | 0.981 | 0.693 | 0.873 | 1.48 | 1.79 | 1.25
Y fixed | 1.18 | 0.927 | 0.988 | 0.861 | 0.786 | 2.56 | 1.32 | 1.37 | 1.02
pThr fixed | 0.769 | 0.87 | 1.03 | 1.14 | 0.432 | 0.493 | 0.711 | 0.711 | 0.884
pTyr fixed | 0.827 | 0.75 | 1.43 | 1.09 | 0.973 | 0.634 | 0.525 | 0.831 | 0.776

Reference: the supplement of paper PMC9876800
